Measured values as given in patent US20120142597A1 (GEORGIA TECH RESEARCH, published 2012).
Values belong to the binder of their own block, whether it stands above or below them.

How the values were obtained:
[1] = target: αvβ3 integrin on MC3T3-E1 murine osteoblast-like cells (mouse, UniProt P43406 31-1044; O54890 26-787); assay: cell-based or functional assay
[2] = target: T1, α5β1 integrin on MC3T3-E1 murine osteoblast-like cells (mouse, UniProt P11688 45-1053; P09055 21-798); assay: antibody blocking of adhesion, MC3T3-E1 cells on tethered ligand
T1 construct: whole, on cells; also called alpha5beta1
T1 sequence (P11688 45-1053, chain 1 of 2): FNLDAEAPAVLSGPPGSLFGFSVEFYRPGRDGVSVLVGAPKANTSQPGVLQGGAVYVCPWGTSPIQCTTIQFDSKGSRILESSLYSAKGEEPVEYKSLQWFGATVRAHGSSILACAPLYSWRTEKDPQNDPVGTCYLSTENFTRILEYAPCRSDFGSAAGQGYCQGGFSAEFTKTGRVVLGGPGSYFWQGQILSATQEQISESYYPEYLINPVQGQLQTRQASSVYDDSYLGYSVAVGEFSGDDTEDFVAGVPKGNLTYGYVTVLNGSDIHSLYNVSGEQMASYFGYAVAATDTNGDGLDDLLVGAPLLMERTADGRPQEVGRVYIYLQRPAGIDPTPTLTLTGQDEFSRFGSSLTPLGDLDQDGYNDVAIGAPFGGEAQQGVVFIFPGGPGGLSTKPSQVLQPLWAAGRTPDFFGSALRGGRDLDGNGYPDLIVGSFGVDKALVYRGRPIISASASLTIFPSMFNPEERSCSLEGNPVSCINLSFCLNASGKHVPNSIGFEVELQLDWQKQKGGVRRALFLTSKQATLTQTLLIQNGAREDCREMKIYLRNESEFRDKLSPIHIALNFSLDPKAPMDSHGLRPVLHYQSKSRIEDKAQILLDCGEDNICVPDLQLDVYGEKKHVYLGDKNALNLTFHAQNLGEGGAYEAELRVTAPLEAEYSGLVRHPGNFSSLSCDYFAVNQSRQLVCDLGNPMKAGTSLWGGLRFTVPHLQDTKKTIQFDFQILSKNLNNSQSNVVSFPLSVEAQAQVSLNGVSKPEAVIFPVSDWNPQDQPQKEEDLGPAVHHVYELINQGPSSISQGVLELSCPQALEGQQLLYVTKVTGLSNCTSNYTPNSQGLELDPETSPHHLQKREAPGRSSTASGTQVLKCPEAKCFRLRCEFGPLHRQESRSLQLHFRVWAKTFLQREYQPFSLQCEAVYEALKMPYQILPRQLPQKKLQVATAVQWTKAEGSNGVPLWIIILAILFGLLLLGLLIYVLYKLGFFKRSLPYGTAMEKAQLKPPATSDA
T1 sequence (P09055 21-798, chain 2 of 2): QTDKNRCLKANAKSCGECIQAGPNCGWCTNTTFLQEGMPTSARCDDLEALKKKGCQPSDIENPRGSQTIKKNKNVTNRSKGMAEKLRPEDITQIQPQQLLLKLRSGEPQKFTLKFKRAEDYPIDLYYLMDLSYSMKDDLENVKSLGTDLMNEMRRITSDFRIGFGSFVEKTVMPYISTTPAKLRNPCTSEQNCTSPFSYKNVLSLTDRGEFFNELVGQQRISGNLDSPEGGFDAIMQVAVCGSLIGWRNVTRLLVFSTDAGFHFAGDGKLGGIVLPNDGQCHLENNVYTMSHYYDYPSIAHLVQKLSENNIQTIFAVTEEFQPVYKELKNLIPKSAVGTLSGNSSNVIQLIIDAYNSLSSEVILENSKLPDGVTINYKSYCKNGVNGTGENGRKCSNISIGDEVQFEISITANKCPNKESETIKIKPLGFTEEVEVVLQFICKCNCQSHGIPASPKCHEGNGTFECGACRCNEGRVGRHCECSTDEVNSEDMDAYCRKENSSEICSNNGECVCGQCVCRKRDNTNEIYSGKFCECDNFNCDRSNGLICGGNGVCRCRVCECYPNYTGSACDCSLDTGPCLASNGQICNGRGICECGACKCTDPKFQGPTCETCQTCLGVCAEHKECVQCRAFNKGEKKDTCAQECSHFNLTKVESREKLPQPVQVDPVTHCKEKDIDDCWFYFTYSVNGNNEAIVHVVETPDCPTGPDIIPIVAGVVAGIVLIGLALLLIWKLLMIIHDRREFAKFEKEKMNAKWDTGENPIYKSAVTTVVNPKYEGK
Experimental: MC3T3-E1 cells were labeled with 4 mM calcein-AM, a membrane-permeable green fluorescent dye, in 2 mM dextrose-DPBS for 30 min and resuspended in α-MEM with 10% FBS. Cells were seeded onto the surfaces at 200 cells/mm², and allowed to attach for 1 h at 37° C. For blocking antibody experiments, cells were incubated in the presence of function-perturbing antibodies (10 μg/ml) for 10 min with gentle agitation prior to cell seeding. […] Wells were then filled completely with dextrose-PBS, sealed, inverted, and centrifuged for 5 min at a prescribed speed on a Beckman Allegra 6 centrifuge (GH 3.8 rotor) to apply normal detachment forces. Media was then gently aspirated from the wells, and wells were refilled for post-spin image collection. Post/pre-spin cell ratios were determined by image analysis, and this adhesive fraction was plotted against ligand surface density to obtain cell adhesion profiles.
Function-perturbing antibodies directed against different integrin subunits were used to block adhesion to the engineered interfaces. Since integrins α₅β₁ and αᵥβ₃ represent the dominant adhesion receptors for FN in MC3T3-E1 cells, the contributions of these receptors to adhesion strength on the peptide-functionalized SAMs was examined. Surfaces were tethered with maximum density of ligand, and the relative cell adhesion was normalized to unblocked controls.

[3] = target: T1, α5β1 integrin on MC3T3-E1 murine …; assay: cell-based or functional assay

αvβ3 integrin on MC3T3-E1 murine osteoblast-like cells, sequence (P43406 31-1044, chain 1 of 2): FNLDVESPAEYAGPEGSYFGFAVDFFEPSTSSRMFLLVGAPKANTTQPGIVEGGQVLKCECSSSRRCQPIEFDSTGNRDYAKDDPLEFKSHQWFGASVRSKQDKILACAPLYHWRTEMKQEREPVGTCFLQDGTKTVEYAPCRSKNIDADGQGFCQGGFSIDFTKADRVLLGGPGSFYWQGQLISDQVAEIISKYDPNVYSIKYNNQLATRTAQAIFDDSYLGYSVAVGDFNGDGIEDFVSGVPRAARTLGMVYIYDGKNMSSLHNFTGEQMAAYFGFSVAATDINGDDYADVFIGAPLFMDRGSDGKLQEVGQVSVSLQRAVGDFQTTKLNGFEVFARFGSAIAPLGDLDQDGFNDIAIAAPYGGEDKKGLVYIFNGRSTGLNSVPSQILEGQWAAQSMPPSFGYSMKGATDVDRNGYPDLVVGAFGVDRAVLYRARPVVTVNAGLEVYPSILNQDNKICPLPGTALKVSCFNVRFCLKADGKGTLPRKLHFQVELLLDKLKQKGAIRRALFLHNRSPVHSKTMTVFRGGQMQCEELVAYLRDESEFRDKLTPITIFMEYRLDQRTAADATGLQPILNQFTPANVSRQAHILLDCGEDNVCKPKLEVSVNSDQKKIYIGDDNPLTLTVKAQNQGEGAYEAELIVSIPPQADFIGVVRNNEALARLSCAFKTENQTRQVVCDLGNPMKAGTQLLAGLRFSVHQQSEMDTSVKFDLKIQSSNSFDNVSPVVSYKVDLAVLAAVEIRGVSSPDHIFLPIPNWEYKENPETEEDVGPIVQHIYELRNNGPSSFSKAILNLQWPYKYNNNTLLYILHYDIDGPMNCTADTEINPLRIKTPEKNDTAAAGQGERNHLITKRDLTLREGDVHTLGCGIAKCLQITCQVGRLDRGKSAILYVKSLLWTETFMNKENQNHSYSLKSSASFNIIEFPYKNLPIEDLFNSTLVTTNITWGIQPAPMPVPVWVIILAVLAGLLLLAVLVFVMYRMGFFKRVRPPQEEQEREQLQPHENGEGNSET
αvβ3 integrin on MC3T3-E1 murine osteoblast-like cells, sequence (O54890 26-787, chain 2 of 2): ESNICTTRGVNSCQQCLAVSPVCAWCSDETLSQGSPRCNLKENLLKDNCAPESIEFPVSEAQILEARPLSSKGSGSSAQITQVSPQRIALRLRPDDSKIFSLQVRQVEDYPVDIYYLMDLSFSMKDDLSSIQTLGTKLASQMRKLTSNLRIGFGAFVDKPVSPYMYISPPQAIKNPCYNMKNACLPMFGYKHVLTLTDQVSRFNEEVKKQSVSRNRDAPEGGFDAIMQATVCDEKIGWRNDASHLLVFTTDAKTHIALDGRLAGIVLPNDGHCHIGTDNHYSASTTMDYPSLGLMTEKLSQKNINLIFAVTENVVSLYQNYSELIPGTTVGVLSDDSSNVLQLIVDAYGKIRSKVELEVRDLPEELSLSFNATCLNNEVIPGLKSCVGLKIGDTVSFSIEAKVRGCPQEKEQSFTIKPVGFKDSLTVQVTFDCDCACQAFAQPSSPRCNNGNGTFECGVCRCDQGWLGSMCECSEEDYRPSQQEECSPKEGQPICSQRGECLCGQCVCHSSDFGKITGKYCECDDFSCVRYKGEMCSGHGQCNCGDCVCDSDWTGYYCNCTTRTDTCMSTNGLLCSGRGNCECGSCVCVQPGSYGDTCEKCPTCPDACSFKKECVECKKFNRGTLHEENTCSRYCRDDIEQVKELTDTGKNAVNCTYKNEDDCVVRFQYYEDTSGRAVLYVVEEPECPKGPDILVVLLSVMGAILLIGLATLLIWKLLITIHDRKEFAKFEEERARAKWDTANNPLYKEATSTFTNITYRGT

ADH50 (ligand density required for half-maximal adhesion of MC3T3-E1 cells) [1]: 2300 fmol/cm^2
Binder: GRGDSPC [RGD peptide (GRGDSPC)]

binding result [2]: no binding | ADH50 (ligand density required for half-maximal adhesion of MC3T3-E1 cells) [1]: 1950 fmol/cm^2
Binder: GRGDGGGGGGGGGGGGGPHSRN (Synthetic; tethered to SAMs) [RGD-PHSRN peptide (GRGDG13PHSRN)]

ADH50 (ligand density required for half-maximal adhesion of MC3T3-E1 cells) [3]: 70 fmol/cm^2 | FAK tyrosine-397 phosphorylation, FNIII7-10 surface against RGD-tethered surface [3]: ~3 fold | cell proliferation rate (BrdU incorporation), FNIII7-10 surface against RGD-tethered surface [3]: 2 fold
B1: monobiotinylated recombinant fibronectin fragment FNIII7-10 (ligand)
chain: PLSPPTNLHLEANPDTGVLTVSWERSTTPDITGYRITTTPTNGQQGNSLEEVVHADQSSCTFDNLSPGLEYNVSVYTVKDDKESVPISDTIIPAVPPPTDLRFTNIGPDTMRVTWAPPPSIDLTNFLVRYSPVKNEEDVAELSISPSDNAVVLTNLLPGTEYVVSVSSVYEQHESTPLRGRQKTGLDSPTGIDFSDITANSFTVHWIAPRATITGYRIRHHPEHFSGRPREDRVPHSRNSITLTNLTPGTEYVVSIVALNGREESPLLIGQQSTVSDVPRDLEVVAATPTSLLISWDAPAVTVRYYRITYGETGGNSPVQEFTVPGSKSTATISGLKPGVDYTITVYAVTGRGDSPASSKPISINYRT
modifications: single biotin on the N-terminal biotin tagging sequence (monobiotinylated)
